From the supplement of paper PMC10065799, “High-throughput profiling of sequence recognition by tyrosine kinases and SH2 domains using bacterial peptide display” (eLife, 2023)

Assays:
MERTK = MERTK (UniProt Q12866); assay: phosphorylation enrichment, bacterial display (enrichment ratio); higher = better substrate or ligand; peptides without Tyr show the background
Hck = Hck (UniProt P08631); assay: as above
EPHB2 = EPHB2 (UniProt P29323); assay: as above
Fes = Fes (UniProt P07332); assay: as above
Sequence of Fes (P07332 whole entry, looked up): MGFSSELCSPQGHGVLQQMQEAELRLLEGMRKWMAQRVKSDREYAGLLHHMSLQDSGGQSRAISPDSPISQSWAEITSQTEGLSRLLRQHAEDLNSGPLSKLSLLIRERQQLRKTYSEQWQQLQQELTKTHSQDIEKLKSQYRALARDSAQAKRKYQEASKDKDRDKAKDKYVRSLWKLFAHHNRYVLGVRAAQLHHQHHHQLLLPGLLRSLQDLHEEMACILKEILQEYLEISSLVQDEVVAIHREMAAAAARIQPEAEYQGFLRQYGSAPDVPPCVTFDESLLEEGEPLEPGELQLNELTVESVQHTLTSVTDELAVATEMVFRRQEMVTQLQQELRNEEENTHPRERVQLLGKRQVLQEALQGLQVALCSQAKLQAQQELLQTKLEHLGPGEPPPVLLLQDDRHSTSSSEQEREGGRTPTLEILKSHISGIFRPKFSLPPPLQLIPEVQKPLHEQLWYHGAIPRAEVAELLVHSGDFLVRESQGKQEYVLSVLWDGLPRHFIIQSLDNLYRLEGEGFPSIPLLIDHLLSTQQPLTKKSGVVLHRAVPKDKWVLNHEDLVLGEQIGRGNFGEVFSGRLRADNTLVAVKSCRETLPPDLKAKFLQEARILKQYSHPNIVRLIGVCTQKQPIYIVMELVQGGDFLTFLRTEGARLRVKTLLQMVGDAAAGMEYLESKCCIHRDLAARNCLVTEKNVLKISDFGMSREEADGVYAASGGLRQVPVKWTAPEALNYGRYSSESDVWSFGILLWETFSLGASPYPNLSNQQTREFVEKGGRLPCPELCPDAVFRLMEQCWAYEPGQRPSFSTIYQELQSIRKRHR

Jak2 = Jak2 (UniProt O60674); assay: as above
Sequence of Jak2 (O60674 whole entry, looked up): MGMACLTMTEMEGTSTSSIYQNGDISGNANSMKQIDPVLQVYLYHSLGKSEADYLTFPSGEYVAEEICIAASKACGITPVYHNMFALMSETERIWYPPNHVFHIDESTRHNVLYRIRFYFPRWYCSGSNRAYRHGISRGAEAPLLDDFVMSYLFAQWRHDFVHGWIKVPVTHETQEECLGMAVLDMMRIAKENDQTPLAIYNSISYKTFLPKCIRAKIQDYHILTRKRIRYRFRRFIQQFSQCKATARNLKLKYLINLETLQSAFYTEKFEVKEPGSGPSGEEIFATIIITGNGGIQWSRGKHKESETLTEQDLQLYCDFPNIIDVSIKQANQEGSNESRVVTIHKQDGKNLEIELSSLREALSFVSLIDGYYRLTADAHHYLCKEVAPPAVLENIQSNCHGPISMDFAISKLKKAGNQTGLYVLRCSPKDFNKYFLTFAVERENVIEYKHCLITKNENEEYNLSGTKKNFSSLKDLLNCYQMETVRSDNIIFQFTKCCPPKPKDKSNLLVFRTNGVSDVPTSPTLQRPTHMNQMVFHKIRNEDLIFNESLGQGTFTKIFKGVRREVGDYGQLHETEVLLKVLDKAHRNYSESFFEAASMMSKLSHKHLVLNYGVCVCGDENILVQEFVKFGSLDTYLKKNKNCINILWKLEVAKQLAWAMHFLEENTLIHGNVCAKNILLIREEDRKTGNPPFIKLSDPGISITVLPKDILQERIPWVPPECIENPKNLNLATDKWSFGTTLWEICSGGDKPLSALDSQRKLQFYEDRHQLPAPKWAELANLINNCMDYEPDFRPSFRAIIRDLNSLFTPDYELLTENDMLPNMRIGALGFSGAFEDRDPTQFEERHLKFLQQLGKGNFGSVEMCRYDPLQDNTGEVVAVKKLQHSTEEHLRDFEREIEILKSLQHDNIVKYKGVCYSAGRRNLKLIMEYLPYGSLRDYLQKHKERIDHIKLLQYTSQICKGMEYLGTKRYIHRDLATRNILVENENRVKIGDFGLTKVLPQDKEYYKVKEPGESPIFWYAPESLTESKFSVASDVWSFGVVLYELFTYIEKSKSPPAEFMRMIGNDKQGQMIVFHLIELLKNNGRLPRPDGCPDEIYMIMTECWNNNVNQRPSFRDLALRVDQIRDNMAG

c-Abl (mouse) = assay: as above
FGFR1 = FGFR1 (UniProt P11362); assay: as above
Sequence of FGFR1 (P11362 whole entry, looked up): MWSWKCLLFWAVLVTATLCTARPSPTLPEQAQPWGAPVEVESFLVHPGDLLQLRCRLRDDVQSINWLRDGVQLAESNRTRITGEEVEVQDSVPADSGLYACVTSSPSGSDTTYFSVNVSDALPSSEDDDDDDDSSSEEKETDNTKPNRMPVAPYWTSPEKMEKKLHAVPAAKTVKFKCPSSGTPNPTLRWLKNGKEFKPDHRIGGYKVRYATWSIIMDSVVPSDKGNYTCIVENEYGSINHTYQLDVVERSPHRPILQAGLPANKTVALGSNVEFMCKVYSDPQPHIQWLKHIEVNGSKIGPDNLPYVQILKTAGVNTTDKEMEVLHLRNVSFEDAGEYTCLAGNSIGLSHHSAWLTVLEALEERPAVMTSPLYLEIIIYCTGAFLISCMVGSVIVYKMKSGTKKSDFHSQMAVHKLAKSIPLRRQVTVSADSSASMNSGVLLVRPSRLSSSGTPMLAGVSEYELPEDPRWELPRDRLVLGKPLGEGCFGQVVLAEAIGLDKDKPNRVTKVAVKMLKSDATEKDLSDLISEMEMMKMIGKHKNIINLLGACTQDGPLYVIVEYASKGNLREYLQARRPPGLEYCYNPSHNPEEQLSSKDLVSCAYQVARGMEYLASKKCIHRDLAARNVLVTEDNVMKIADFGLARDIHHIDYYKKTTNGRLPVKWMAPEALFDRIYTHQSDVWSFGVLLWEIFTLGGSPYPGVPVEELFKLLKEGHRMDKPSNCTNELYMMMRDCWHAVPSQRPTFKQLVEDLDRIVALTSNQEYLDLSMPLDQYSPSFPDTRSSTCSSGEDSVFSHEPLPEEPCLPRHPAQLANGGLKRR

Fer (mouse) = assay: as above
Fyn = Fyn (UniProt P06241); assay: as above
AncSZ = assay: as above
FGFR3 = FGFR3 (UniProt P22607); assay: as above
Sequence of FGFR3 (P22607 whole entry, looked up): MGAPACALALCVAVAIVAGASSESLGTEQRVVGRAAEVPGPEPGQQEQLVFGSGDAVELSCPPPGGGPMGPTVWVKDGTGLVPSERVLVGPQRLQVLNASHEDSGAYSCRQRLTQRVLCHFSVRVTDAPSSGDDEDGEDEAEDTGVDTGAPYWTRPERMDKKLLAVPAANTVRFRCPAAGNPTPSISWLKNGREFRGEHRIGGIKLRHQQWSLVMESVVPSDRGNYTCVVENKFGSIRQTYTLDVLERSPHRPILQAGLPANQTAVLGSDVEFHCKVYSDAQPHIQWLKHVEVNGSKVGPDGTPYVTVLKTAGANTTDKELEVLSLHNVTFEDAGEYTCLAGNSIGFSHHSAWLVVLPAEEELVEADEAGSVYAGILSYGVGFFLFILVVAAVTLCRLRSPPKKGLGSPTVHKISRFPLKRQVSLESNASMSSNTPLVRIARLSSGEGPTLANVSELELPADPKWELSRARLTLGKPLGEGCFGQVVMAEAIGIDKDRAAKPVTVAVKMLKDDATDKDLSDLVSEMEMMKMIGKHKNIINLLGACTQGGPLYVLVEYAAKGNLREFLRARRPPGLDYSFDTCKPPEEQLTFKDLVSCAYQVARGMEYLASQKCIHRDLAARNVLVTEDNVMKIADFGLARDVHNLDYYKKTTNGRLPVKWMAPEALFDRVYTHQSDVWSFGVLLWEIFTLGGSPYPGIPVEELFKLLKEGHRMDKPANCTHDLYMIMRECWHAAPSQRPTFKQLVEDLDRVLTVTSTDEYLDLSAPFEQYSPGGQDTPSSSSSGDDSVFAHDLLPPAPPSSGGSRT

EPHB1 = EPHB1 (UniProt P54762); assay: as above
Sequence of EPHB1 (P54762 whole entry, looked up): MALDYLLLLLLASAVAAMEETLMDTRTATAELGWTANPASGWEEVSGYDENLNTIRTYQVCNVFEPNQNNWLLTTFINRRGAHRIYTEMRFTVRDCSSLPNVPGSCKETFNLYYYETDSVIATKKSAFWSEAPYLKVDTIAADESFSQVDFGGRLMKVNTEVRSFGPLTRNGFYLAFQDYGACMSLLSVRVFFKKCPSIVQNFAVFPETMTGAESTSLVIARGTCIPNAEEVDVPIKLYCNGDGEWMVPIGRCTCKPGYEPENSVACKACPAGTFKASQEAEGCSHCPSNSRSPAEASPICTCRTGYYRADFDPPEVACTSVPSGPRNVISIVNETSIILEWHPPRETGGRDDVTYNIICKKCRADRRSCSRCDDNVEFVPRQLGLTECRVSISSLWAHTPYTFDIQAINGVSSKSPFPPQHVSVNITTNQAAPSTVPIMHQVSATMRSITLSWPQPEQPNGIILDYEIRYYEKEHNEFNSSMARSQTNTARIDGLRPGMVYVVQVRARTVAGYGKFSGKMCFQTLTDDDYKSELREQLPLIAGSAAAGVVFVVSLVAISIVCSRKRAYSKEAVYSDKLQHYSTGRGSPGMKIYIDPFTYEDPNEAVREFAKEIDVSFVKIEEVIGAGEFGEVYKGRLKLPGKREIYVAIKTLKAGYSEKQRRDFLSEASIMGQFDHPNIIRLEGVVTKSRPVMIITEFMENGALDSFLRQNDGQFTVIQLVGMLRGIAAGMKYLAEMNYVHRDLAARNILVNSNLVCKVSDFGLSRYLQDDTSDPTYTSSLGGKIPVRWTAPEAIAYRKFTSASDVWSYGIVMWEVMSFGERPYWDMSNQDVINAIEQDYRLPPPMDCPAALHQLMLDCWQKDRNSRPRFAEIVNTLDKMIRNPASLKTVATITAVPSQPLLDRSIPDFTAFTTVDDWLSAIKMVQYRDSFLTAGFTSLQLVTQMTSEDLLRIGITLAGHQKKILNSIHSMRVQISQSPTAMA

c-Src = assay: as above
Grb2 SH2 = Grb2 SH2 (UniProt P62993); assay: SH2 binding enrichment of the phosphorylated peptide, bacterial display (enrichment ratio); higher = better substrate or ligand; peptides without Tyr show the background
Sequence of Grb2 SH2 (P62993 whole entry, looked up): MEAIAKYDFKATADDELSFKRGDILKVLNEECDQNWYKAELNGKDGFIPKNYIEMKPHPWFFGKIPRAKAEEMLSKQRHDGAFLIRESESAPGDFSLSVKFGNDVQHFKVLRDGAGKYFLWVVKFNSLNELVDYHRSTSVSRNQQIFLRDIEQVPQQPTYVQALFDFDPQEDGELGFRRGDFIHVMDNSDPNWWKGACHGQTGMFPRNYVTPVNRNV

c-Src SH2 = assay: as above
SHP2-C SH2 = assay: as above
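Throughout, for SH2 binding enrichment of the phosphorylated peptide, bacterial display: peptide library displayed on the E. coli surface as eCPX fusions, selected cells deep-sequenced, score is each peptide's frequency after selection divided by its frequency in the input.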
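Throughout, for phosphorylation enrichment, bacterial display: 11-residue human phosphosite peptides and single-mutation variants displayed on the E. coli surface, counted by deep sequencing, each peptide's frequency after selection divided by its frequency in the unselected input library; frequency after pTyr selection over input frequency; kinase dosed for 20-30% of maximal phosphorylation in three min.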

| Sequence | phosphorylation enrichment (MERTK) | phosphorylation enrichment (Hck) | phosphorylation enrichment (EPHB2) | phosphorylation enrichment (Fes) | phosphorylation enrichment (Jak2) | phosphorylation enrichment (c-Abl (mouse)) | phosphorylation enrichment (FGFR1) | phosphorylation enrichment (Fer (mouse)) | phosphorylation enrichment (Fyn) | phosphorylation enrichment (AncSZ) | phosphorylation enrichment (FGFR3) | phosphorylation enrichment (EPHB1) | phosphorylation enrichment (c-Src) | SH2 binding enrichment (Grb2 SH2) | SH2 binding enrichment (c-Src SH2) | SH2 binding enrichment (SHP2-C SH2) |
| --- | --- | --- | --- | --- | --- | --- | --- | --- | --- | --- | --- | --- | --- | --- | --- | --- |
| KGEDFYYVTCH [FHL1_Y149_C150Y] | 1.32 | 0.724 | 0.729 | 1.43 | 1.43 | 1.11 | 1.35 | 0.71 | 0.692 | 1.35 | 1.69 | 0.802 | 0.774 | 0.636 | 0.412 | 0.565 |
| KGEPQYSSHSS [SIPA1L3_Y1265] | 0.429 | 0.295 | 0.317 | 0.547 | 0.57 | 0.498 | 0.298 | 0.45 | 0.554 | 0.515 | 0.421 | 0.327 | 0.496 | 0.853 | 0.411 | 0.408 |
| KGIDRYNPENL [EIF3K_Y21] | 0.414 | 0.384 | 0.446 | 0.736 | 0.449 | 0.456 | 0.493 | 0.372 | 0.42 | 0.583 | 0.564 | 0.349 | 0.358 | 0.861 | 0.524 | 0.785 |
| KGSEGYLAATY [NF1_Y2503] | 0.355 | 0.46 | 0.365 | 0.723 | 0.627 | 0.471 | 0.377 | 0.457 | 0.46 | 0.654 | 0.494 | 0.372 | 0.484 | 0.719 | 0.473 | 0.614 |
| KHMADYPDFKF [SOX11_Y113_YF] | 0.398 | 0.391 | 0.496 | 0.84 | 0.669 | 0.591 | 0.62 | 0.434 | 0.502 | 0.745 | 0.701 | 0.503 | 0.386 | 0.733 | 0.387 | 0.719 |
| KIKGRYEKCEP [KRT26_Y119_W118R] | 0.478 | 0.546 | 0.526 | 1.13 | 1.37 | 1.25 | 0.562 | 0.584 | 0.412 | 0.808 | 1.17 | 0.614 | 0.579 | 1.67 | 1.81 | 1.9 |
| KIMVIYDGACQ [VWDE_Y1035_T1032M] | 0.519 | 1.49 | 1.11 | 1.69 | 1.83 | 0.965 | 0.687 | 0.897 | 0.885 | 1.35 | 1.07 | 1.3 | 0.796 | 0.776 | 0.455 | 0.597 |
| KIVFVYVKKRS [DNAI2_Y7_E2K_YF] | 0.354 | 0.449 | 0.48 | 0.966 | 0.925 | 0.576 | 0.466 | 0.478 | 0.425 | 1.06 | 0.731 | 0.439 | 0.428 | 1.27 | 0.856 | 1.13 |
| KKHIPYREHKS [CSNK1G1_Y205] | 1.03 | 1.19 | 1.25 | 2.94 | 3.87 | 3.25 | 1.31 | 1.81 | 0.888 | 1.76 | 3.18 | 1.84 | 1.46 | 1.99 | 1.88 | 2.1 |
| KKIMGYSIRTI [IDS_Y490_I485K] | 0.366 | 0.387 | 0.405 | 0.571 | 0.537 | 0.538 | 0.392 | 0.394 | 0.304 | 0.625 | 0.332 | 0.41 | 0.364 | 1.67 | 1.32 | 1.2 |
| KLIETCFSKNF [PLP1_Y50_Y50C_YF] | 0.405 | 0.492 | 0.523 | 1.23 | 1.06 | 0.826 | 0.47 | 0.504 | 0.413 | 1.14 | 0.725 | 0.581 | 0.476 | 0.849 | 0.482 | 0.561 |
| KLNNEHLELNY [MME_Y497_Y497H] | 0.395 | 0.421 | 0.452 | 0.768 | 0.619 | 0.58 | 0.437 | 0.445 | 0.471 | 0.775 | 0.517 | 0.402 | 0.417 | 0.934 | 0.573 | 0.734 |
| KLQQWYREHRS [GPI_Y17] | 0.355 | 0.44 | 0.399 | 0.613 | 0.567 | 0.548 | 0.434 | 0.392 | 0.382 | 0.6 | 0.475 | 0.37 | 0.384 | 1.37 | 1.26 | 1.12 |
| KLSHLYQDHMQ [WNT5A_Y86_C83S] | 0.437 | 0.455 | 0.579 | 0.844 | 0.712 | 0.616 | 0.439 | 0.647 | 0.442 | 0.794 | 0.703 | 0.462 | 0.406 | 0.832 | 0.573 | 0.772 |
| KLVDVYVNDAF [PGK1_Y161_G158V] | 0.425 | 0.554 | 0.5 | 0.81 | 0.661 | 0.387 | 0.635 | 0.496 | 0.574 | 0.895 | 0.626 | 0.575 | 0.435 | 1.44 | 0.764 | 0.832 |
| KMATAYIRSMS [BCO1_Y264_R267S] | 0.396 | 0.388 | 0.374 | 0.6 | 0.518 | 0.516 | 0.397 | 0.337 | 0.417 | 0.564 | 0.369 | 0.409 | 0.385 | 1.08 | 0.464 | 0.59 |
